Experimental findings from patent publication US20100204147A1, “Methods For Delivering Thymosin Beta 4, Analogues, Isoforms and Other Derivatives” (REGENERX BIOPHARMACEUTICALS, INC., priority 2003, published 2010) are described below.

The experiment concerns the target T1, Aα221-391 sub-fragment (Homo sapiens, UniProt P02671).
T1 construct: (residues Aα221-391 and Aα392-610, respectively); made in house; host or cells: E. coli, pET20b expression vector
T1 sequence (P02671 240-410): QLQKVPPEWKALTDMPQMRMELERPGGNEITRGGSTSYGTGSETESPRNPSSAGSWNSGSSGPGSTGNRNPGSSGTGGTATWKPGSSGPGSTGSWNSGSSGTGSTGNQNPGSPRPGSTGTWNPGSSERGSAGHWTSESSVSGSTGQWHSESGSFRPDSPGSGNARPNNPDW
Nature of the experiment: ELISA of incorporation into immobilized Aα221-391 sub-fragment. In kind it is biochemical. The protocol: The interaction between thymosin β4 and fibrin(ogen) and its fragments in the presence or absence of FXIIIa was studies by ELISA using plastic microliter plates. Wells of microliter plates were coated overnight at […] with fibrinogen and fibrin at 10 μg/mL or with the recombinant fragments of 20 μg/ml, all in 0.1 M NaHCO3 buffer, pH 8.3. Fibrin was made by addition to the wells of a mixture containing 10 μg/mL fibrinogen 1 NIH u/ml thrombin and 400 u/ml aprotinin, followed by overnight incubation at +4° C. The wells were then blocked by incubation with Super Blocker (Pierce) at 37° C. for 1 h. Following washing with TBS containing 0.05% Tween-20 (TBS-Tween), the indicated concentrations of thymosin β4, FXIII, FXIIIa(Thr) and FXIIIa(Ca) were added to the wells and incubated for 2-2.5 h at 37° C. Bound (incorporated) thymosin β4 was detected by the reaction with rabbit anti-thymosin β4 serum and peroxidase-conjugated anti-rabbit IgG. A TMB Microwell Peroxidase Substrase was added to the wells, and the incorporated thymosin β4 was measured spectrophotometrically at 450 nm.
For orientation: An ELISA detects its analyte on a solid surface through an enzyme-linked reagent.

For thymosin β4, the “non-covalent interaction with Aα221-391 sub-fragment (ELISA)” value (non-activated factor XIII or without it) was “no significant non-covalent interaction”. The “incorporation into immobilized Aα221-391 (ELISA)” value (presence of factor XIIIa) is reported as “very low”.
